From patent US20130330324A1 (Novartis, published 2013)
Where a chain is given by its changes, count along the chain named.

B1: MOR09823 (antibody, human IgG1, kappa, V domains shown)
VH: QVQLVESGGGLVQPGGSLRLSCAASGFTFSSYAMSWVRQAPGKGLEWVSVTGAVGRTYYPDSVKGRFTISRDNSKNTLYLQMNSLRAEDTAVYYCARWGDEGFDIWGQGTLVTVSS
VL: DIQMTQSPSSLSASVGDRVTITCRASQGISNWLAWYQQKPGKAPKLLIYGASSLQSGVPSRFSGSGSGTDFTLTISSLQPEDFAVYYCQQYSSFPTTFGQGTKVEIKR
notes: tested as IgG
B2: MOR10703 A50V_N52G (antibody, human IgG1, kappa, V domains shown)
VH: EVQLLESGGGLVQPGGSLRLSCAASGFTFSSYAMSWVRQAPGKGLEWVSVIGSQGKSTYYADSVKGRFTISRDNSKNTLYLQMNSLRAEDTAVYYCARWGDEGFDIWGQGTLVTVSS
VL: B1 VL with V85T
notes: Variant of MOR10703; IgG1/kappa
B3: MOR10702 (antibody, human IgG1, kappa, V domains shown)
VH: B2 VH with G52S, S53A, Q54W, K56H, S57V, T58K
VL: B1 VL with V85T
notes: tested as IgG
B4: MOR09825 (antibody, human IgG1, kappa, V domains shown)
VH: B2 VH with E1Q, L5V, V50A, G52N
VL: B1 VL
notes: tested as IgG
B5: MOR10703 N52G (antibody, human IgG1, kappa, V domains shown)
VH: B2 VH with V50A
VL: B1 VL with V85T
notes: as for B2
B6: MOR10701 R55K (antibody, human IgG1, kappa, V domains shown)
VH: B2 VH with I51T, S53A, Q54V, A61P
VL: B1 VL with V85T
notes: Variant of MOR10701; IgG1/kappa
B7: MOR09974 (antibody, human IgG1, kappa, V domains shown)
VH: B2 VH with E1Q, L5V, G52N, S53P, Q54S, K56N, S57F, Y59N
VL: B1 VL
notes: tested as IgG
B8: MOR10703 N52S (antibody, human IgG1, kappa, V domains shown)
VH: B2 VH with V50A, G52S
VL: B1 VL with V85T
notes: as for B2
B9: MOR09824 (antibody, human IgG1, kappa, V domains shown)
VH: B2 VH with E1Q, L5V, G52S, S53A, Q54W, K56H, S57V, T58K
VL: B1 VL
notes: tested as IgG
B10: MOR10701 R55G (antibody, human IgG1, kappa, V domains shown)
VH: B2 VH with I51T, S53A, Q54V, K56G, A61P
VL: B1 VL with V85T
notes: as for B6
B11: MOR10703 (antibody, human IgG1, kappa, V domains shown)
VH: B2 VH with V50A, G52N
VL: B1 VL with V85T
notes: tested as IgG
B12: MOR10703 A50V_N52S (antibody, human IgG1, kappa, V domains shown)
VH: B2 VH with G52S
VL: B1 VL with V85T
notes: as for B2
B13: MOR12609 (antibody, human IgG1, kappa, V domains shown)
VH: B2 VH with E1Q, L5V, G52N, S53G, Q54L, K56Y, S57T, Y59F
VL: B1 VL
notes: tested as IgG
B14: MOR10701 (antibody, human IgG1, kappa, V domains shown)
VH: B2 VH with I51T, S53A, Q54V, K56R, A61P
VL: B1 VL with V85T
notes: tested as IgG
B15: MOR12610 (antibody, human IgG1, kappa, V domains shown)
VH: B1 VH with V50G, A53P, V54Y, R56G
VL: B1 VL
notes: tested as IgG

Experiments:
[1] = target: T1, Rat HER3 (CD33-[Rat HER3, residues 20-643]-TAG) (rat, UniProt Q62799 20-643); experiment: solution equilibrium titration (SET), IgG
T1 construct: range 20-643; CD33 leader left out as signal; also called ra HER3-Tag; not shown: C-terminal TAG (e.g. FLAG TAG)

[2] = target: T2, Mu HER3 (CD33-[Murine HER3, residues 20-643]-TAG) (mouse, UniProt Q61526 20-643); experiment: solution equilibrium titration (SET), IgG
T2 construct: range 20-643; CD33 leader left out as signal; also called mu HER3-Tag; not shown: C-terminal TAG (e.g. FLAG TAG)

[3] = target: T3, Hu HER3 (CD33-[Human HER3, residues 20-640]-TAG) (human, UniProt P21860 20-640); experiment: solution equilibrium titration (SET), IgG
T3 construct: N-terminal CD33 leader is a secretion signal and is left out; also called hu HER3-Tag; HER3-Tag; not shown: C-terminal TAG (e.g. FLAG TAG)

[4] = target: T4, Cyno HER3 (CD33-[Cyno HER3, residues 20-643]-TAG) (cynomolgus, UniProt G7PIG5 20-643); experiment: solution equilibrium titration (SET), IgG
T4 construct: range 20-643; CD33 leader left out as signal; also called cy HER3-Tag; not shown: C-terminal TAG (e.g. FLAG TAG)

[5] = target: T5, Human HER3, endogenous, on human cancer cell lines (human, UniProt P21860 20-1342); experiment: FACS titration on SK-Br-3 cells
T5 construct: Endogenous antigen on SK-Br-3, MCF7 or BT-474 cells; also called HER3 on SK-Br-3 cells; HER3 on MCF7 cells

[6] = target: T5, Human HER3, endogenous, on human cancer …; experiment: cell-based or functional assay
[7] = target: T5, Human HER3, endogenous, on human cancer …; experiment: cell-based or functional assay; remark: listed apart in the source
[8] = target: T5, Human HER3, endogenous, on human cancer …; experiment: cell-based or functional assay; remark: listed apart in the source
[9] = target: T6, HER3 K267A (CD33-[Human HER3, residues 20-640, K267A]-TAG) (human, UniProt P21860 20-640); experiment: ELISA titration, mutant HER3-Tag coated, antibody titrated, OD450
T6 construct: CD33 leader left out as signal; also called HER3 K267A-Tag; not shown: C-terminal TAG

[10] = target: T7, HER3 L268A (CD33-[Human HER3, residues 20-640, L268A]-TAG) (human, UniProt P21860 20-640); experiment: as above
T7 construct: CD33 leader left out as signal; also called HER3 L268A-Tag; not shown: C-terminal TAG

[11] = target: T3, Hu HER3 (CD33-[Human HER3, residues …); experiment: ELISA titration, wild-type HER3-Tag coated, antibody titrated, OD450

| Binder | Kd [1] | Kd [2] | Kd [3] | Kd [4] | EC50 [5] | MCF7 pHER3 % inhibition [6] | MCF7 pHER3 IC50 [6] | SK-Br-3 pHER3 % inhibition [6] | SK-Br-3 pHER3 IC50 [6] | BT-474 proliferation % inhibition at 10 µg/ml IgG [7] | MCF7 (neuregulin stimulated) proliferation % inhibition at 10 µg/ml IgG [7] | SK-Br-3 proliferation % inhibition at 10 µg/ml IgG [7] | BT-474 pAkt (S473) % inhibition [8] | SK-Br-3 pAkt (S473) % inhibition [8] | SK-Br-3 pAkt (S473) IC50 [8] | MCF7 pAkt (S473) IC50 [8] | binding result [9] | binding result [10] | EC50 (read off the curve) [11] |
| --- | --- | --- | --- | --- | --- | --- | --- | --- | --- | --- | --- | --- | --- | --- | --- | --- | --- | --- | --- |
| B1 | 0.011 nM | 0.002 nM | 0.009 nM | 0.004 nM | 0.63 nM | 89% | 181 pM | 59% | 56 pM | 39.8% | 82% | 39% | 57% | 92% | 55 pM | – | – | – | – |
| B2 | – | – | 0.022 nM | – | – | – | – | – | – | – | – | – | – | – | – | – | – | – | – |
| B3 | 0.006 nM | 0.005 nM | 0.003 nM | 0.003 nM | – | – | – | – | – | 43.8% | – | – | 55% | – | – | – | – | – | – |
| B4 | 0.096 nM | 0.024 nM | 0.025 nM | 0.056 nM | 0.839 nM | 80% | 399 pM | 66% | 169 pM | 37.2% | 63% | 41% | 69% | 91% | 156 pM | 294 pM | – | – | – |
| B5 | – | – | 0.06 nM | – | – | – | – | – | – | – | – | – | – | – | – | – | – | – | – |
| B6 | – | – | 0.011 nM | – | – | – | – | – | – | – | – | – | – | – | – | – | – | – | – |
| B7 | – | 0.12 nM | 0.35 nM | 0.2 nM | – | 69% | 3070 pM | 67% | 1930 pM | – | 20% | 35% | – | 85% | 814 pM | – | – | – | – |
| B8 | – | – | 0.057 nM | – | – | – | – | – | – | – | – | – | – | – | – | – | – | – | – |
| B9 | 0.007 nM | 0.002 nM | 0.003 nM | 0.003 nM | 0.324 nM | 91% | 103 pM | 64% | 110 pM | 36.8% | 82% | 33% | 46% | 93% | 62 pM | – | – | – | – |
| B10 | – | – | 0.018 nM | – | – | – | – | – | – | – | – | – | – | – | – | – | – | – | – |
| B11 | 0.04 nM | 0.02 nM | 0.026 nM | 0.023 nM | 2.45 nM | 80% | 333 pM | 69% | 167 pM | 41.6% | 81% | 35% | 62% | 89% | 70 pM | 449 pM | no binding | no binding | ~0.3 nM |
| B12 | – | – | 0.016 nM | – | – | – | – | – | – | – | – | – | – | – | – | – | – | – | – |
| B13 | – | – | 0.01 nM | – | – | 86% | 5 pM | 71% | 241 pM | – | – | – | – | – | – | – | – | – | – |
| B14 | 0.01 nM | 0.006 nM | 0.004 nM | 0.004 nM | – | – | – | 74% | 370 pM | 43.6% | – | – | 59% | – | – | – | – | – | – |
| B15 | – | – | 0.037 nM | – | – | 84% | 126 pM | 75% | 192 pM | – | – | – | – | – | – | – | – | – | – |
